Measured values taken from IntAct's records for PubMed 29039417.

B1: Protein PTHB1 (Homo sapiens), Q3SYG4 (parent)
chain: MSLFKARDWWSTILGDKEEFDQGCLCLANVDNSGNGQDKIIVGSFMGYLRIFSPHPAKTGDGAQAEDLLLEVDLRDPVLQVEVGKFVSGTEMLHLAVLHSRKLCVYSVSGTLGNVEHGNQCQMKLMYEHNLQRTACNMTYGSFGGVKGRDLICIQSMDGMLMVFEQESYAFGRFLPGFLLPGPLAYSSRTDSFLTVSSCQQVESYKYQVLAFATDADKRQETEQQKLGSGKRLVVDWTLNIGEQALDICIVSFNQSASSVFVLGERNFFCLKDNGQIRFMKKLDWSPSCFLPYCSVSEGTINTLIGNHNNMLHIYQDVTLKWATQLPHIPVAVRVGCLHDLKGVIVTLSDDGHLQCSYLGTDPSLFQAPNVQSRELNYDELDVEMKELQKIIKDVNKSQGVWPMTEREDDLNVSVVVSPNFDSVSQATDVEVGTDLVPSVTVKVTLQNRVILQKAKLSVYVQPPLELTCDQFTFEFMTPDLTRTVSFSVYLKRSYTPSELEGNAVVSYSRPTDRNPDGIPRVIQCKFRLPLKLICLPGQPSKTASHKITIDTNKSPVSLLSLFPGFASQSDDDQVNVMGFHFLGGARITVLASKTSQRYRIQSEQFEDLWLITNELILRLQEYFEKQGVKDFACSFSGSIPLQEYFELIDHHFELRINGEKLEELLSERAVQFRAIQRRLLARFKDKTPAPLQHLDTLLDGTYKQVIALADAVEENQGNLFQSFTRLKSATHLVILLIALWQKLSADQVAILEAAFLPLQEDTQELGWEETVDAAISHLLKTCLSKSSKEQALNLNSQLNIPKDTSQLKKHITLLCDRLSKGGRLCLSTDAAAPQTMVMPGGCTTIPESDLEERSVEQDSTELFTNHRHLTAETPRPEVSPLQGVSE
partner: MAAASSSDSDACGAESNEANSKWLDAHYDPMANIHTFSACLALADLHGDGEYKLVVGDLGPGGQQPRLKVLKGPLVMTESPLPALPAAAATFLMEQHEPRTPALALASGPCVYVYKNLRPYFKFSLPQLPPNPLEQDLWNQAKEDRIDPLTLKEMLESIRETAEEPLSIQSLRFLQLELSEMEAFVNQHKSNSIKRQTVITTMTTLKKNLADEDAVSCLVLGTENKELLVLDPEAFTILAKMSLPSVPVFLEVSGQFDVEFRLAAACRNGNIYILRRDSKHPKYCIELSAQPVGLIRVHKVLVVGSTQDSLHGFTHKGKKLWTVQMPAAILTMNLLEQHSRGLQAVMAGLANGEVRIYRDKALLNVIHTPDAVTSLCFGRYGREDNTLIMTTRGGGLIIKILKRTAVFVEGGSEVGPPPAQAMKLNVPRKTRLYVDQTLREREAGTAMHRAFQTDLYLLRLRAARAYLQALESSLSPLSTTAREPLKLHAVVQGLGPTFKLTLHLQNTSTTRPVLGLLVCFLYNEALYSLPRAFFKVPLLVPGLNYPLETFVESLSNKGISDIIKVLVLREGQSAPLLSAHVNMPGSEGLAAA
B2: Protein PTHB1 (Homo sapiens), Q3SYG4 (parent)
chain: B1 chain
partner: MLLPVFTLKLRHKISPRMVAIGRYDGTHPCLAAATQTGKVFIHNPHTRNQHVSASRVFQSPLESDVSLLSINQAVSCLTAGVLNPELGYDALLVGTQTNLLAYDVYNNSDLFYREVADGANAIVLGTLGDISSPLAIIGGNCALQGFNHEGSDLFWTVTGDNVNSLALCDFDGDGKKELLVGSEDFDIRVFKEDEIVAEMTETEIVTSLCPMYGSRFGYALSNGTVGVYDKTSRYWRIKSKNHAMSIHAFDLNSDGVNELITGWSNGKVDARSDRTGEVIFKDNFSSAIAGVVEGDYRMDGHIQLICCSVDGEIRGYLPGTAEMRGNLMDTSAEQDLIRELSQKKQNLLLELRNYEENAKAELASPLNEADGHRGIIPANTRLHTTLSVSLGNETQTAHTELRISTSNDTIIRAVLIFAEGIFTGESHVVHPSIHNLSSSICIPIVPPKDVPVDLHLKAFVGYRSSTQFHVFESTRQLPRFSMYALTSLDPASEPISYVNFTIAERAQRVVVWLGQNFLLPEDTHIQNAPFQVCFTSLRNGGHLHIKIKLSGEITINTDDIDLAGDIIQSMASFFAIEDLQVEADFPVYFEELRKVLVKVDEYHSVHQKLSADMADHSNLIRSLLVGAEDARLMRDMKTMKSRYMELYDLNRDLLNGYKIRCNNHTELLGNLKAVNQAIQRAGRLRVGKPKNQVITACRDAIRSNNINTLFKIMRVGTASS

Variants of: B1
Details: with bbs1_human BBS1, Q8NFJ9

Row | effect of a mutation on the interaction | Variant
1 | with no effect | S886A
2 | with no effect | T861E
3 | with no effect | T405K
4 | with no effect | N448K
5 | with no effect | D517E
6 | with no effect | D435A
7 | with no effect | A708E
8 | with no effect | Q447K
9 | with no effect | L799K
10 | with no effect | L692K
11 | with no effect | S603K
12 | with no effect | L720E
13 | with no effect | V734A
14 | with no effect | P511A
15 | with no effect | F606E
16 | with no effect | Y495E
17 | with no effect | L680A
18 | with no effect | T731E
19 | with no effect | L757E
20 | with no effect | C535E
21 | with no effect | A710K
22 | with no effect | I735E
23 | with no effect | I751A
24 | with no effect | V459K

Row | effect of a mutation on the interaction | Variant
25 | with no effect | T445K
26 | with no effect | I846K
27 | with no effect | S828A
28 | with no effect | L562K
29 | with no effect | Y490A
30 | with no effect | G822E
31 | with no effect | Q748K
32 | with no effect | C783A
33 | with no effect | R528K
34 | with no effect | L736A
35 | with no effect | H546K
36 | with no effect | V506E
37 | with no effect | V506A
38 | with no effect | R674E
39 | with no effect | E406A
40 | with no effect | E406K
41 | with no effect | L655E
42 | with no effect | S423K
43 | with no effect | L467K
44 | with no effect | Y460K
45 | with no effect | F421A
46 | with no effect | D762A
47 | with no effect | I612K
48 | with no effect | L559E

Row | effect of a mutation on the interaction | Variant
49 | with no effect | L446E
50 | with no effect | R587K
51 | with no effect | T702A
52 | with no effect | R514E
53 | with no effect | L611E
54 | with no effect | N794E
55 | with no effect | E654A
56 | with no effect | R493K
57 | with no effect | S806A
58 | with no effect | D859A
59 | with no effect | V590E
60 | with no effect | R600K
61 | with no effect | V440A
62 | with no effect | V440K
63 | with no effect | Q717A
64 | with no effect | T496K
65 | with no effect | W741E
66 | disrupting interaction strength | W741S
67 | with no effect | F527E
68 | with no effect | Q471K
69 | with no effect | Q643K
70 | with no effect | Q569E
71 | with no effect | M477A
72 | with no effect | D650A

Row | effect of a mutation on the interaction | Variant
73 | with no effect | L752E
74 | with no effect | L752K
75 | with no effect | T478E
76 | with no effect | D804K
77 | with no effect | D480E
78 | with no effect | L618A
79 | with no effect | L618K
80 | with no effect | G628K
81 | with no effect | N719E
82 | with no effect | I812E
83 | with no effect | G659K
84 | with no effect | L737A
85 | with no effect | Q835E
86 | with no effect | S458K
87 | with no effect | R669E
88 | with no effect | R669K
89 | with no effect | H869E
90 | with no effect | L665K
91 | with no effect | R483E
92 | with no effect | V856E
93 | with no effect | K687E
94 | with no effect | A504K
95 | with no effect | F487K
96 | with no effect | A739E

Row | effect of a mutation on the interaction | Variant
97 | with no effect | A739K
98 | disrupting interaction strength | S545N
99 | with no effect | T482A
100 | disrupting interaction strength | S507F
101 | with no effect | G538A
102 | with no effect | I550A
103 | with no effect | P516A
104 | with no effect | P516K
105 | with no effect | L825K
106 | with no effect | F580E
107 | with no effect | V461A
108 | with no effect | P691K
109 | disrupting interaction strength | P691S
110 | with no effect | V485K
111 | with no effect | S820E
112 | with no effect | L533A
113 | with no effect | L795A
114 | with no effect | L698A
115 | with no effect | D830A
116 | with no effect | D830E
117 | with no effect | D470A
118 | with no effect | N412K
119 | with no effect | G584E
120 | with no effect | L709A

Row | effect of a mutation on the interaction | Variant
121 | with no effect | S568A
122 | with no effect | L662K
123 | with no effect | S788E
124 | with no effect | I649K
125 | with no effect | Q760A
126 | with no effect | T725A
127 | with no effect | A775K
128 | with no effect | A544K
129 | with no effect | L695A
130 | with no effect | C634A
131 | with no effect | L491E
132 | with no effect | L491K
133 | with no effect | N716K
134 | with no effect | V416E
135 | with no effect | E625K
136 | with no effect | E625A
137 | with no effect | K443E
138 | with no effect | M837E
139 | with no effect | I601E
140 | with no effect | V713E
141 | with no effect | T512A
142 | with no effect | S745A
143 | with no effect | D696A
144 | with no effect | S723E

Row | effect of a mutation on the interaction | Variant
145 | with no effect | N576E
146 | with no effect | R656E
147 | with no effect | R656A
148 | with no effect | T613A
149 | with no effect | T613E
150 | with no effect | A567E
151 | with no effect | T836K
152 | with no effect | D551K
153 | disrupting interaction strength | R619C
154 | with no effect | S635K
155 | disrupting interaction strength | L819K
156 | with no effect | E663K
157 | with no effect | E501K
158 | with no effect | R726E
159 | with no effect | T871E
160 | with no effect | S494K
161 | with no effect | F474A
162 | with no effect | E770A
163 | with no effect | L465K
164 | with no effect | P847A
165 | with no effect | E607K
166 | with no effect | T589A
167 | with no effect | T589K
168 | with no effect | L648E

Variants of: B2
Details: with bbs2_human BBS2, Q9BXC9

Row | effect of a mutation on the interaction | Variant
169 | with no effect | P840K
170 | with no effect | E466K
171 | with no effect | S545A
172 | with no effect | P641E
173 | with no effect | T763A
174 | with no effect | A792E
175 | with no effect | L779E
176 | with no effect | L583A
177 | with no effect | L736A
178 | with no effect | G565E
179 | with no effect | T782E
180 | with no effect | P464E
181 | with no effect | S787E
182 | with no effect | R587E
183 | with no effect | S603E
184 | with no effect | V590K
185 | with no effect | N515K
